How the values were obtained:
[1] = biological target: FUL3 (wheat); assay: two-hybrid
[2] = biological target: FUL2 (wheat); assay: two-hybrid

percent reduction of the α-gal activity of the FUL3 - SEP1-2 interaction [1]: 93.8% | percent reduction of the α-gal activity of the FUL2 - SEP1-2 interaction [2]: 12% | percent reduction of the α-gal activity of the FUL2 - SEP1-4 interaction [2]: 20.6% | percent reduction of the α-gal activity of the FUL2 - SEP1-6 interaction [2]: 22%
Substance: VRT2 (Bridge protein of the yeast three-hybrid assay) (natural protein)

Reference: paper doi:10.1101/2020.12.01.405779
